From the supplement of paper PMC9112550, “Optimization of the antimicrobial peptide Bac7 by deep mutational scanning” (BMC Biology, 2022) come the findings set out here.
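Note: peptides expressed intracellularly from a pBAD plasmid library in pooled LB shake-flask culture, induced with 0.3% L-arabinose, DNA abundance read by NGS, three biological replicates, DESeq2 with apeglm shrinkage.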

This data set relates to Escherichia coli TOP10. Kind of data set: shrunken log2 fold change of peptide-encoding DNA abundance (4.5 h post-induction vs induction); higher = less antimicrobial activity (less host growth inhibition). As to conditions: time post-induction: 4.5 h; library: site-saturation at positions 5, 18, 19, 20.
Take RRIRGRPPRLPRPRPRPRHEPRP: the “shrunken log2 fold change” value is 0.604. As for RRIRWRPPRLPRPRPRPYHKPRP, the “shrunken log2 fold change” value was -0.118. To RRIRLRPPRLPRPRPRPELDPRP belongs 0.273. As to RRIRERPPRLPRPRPRPITTPRP, the “shrunken log2 fold change” value is -0.03. The same measure for RRIRQRPPRLPRPRPRPRNEPRP: -0.199; for RRIRMRPPRLPRPRPRPRHNPRP: -0.0227.

For RRIRPRPPRLPRPRPRPHCFPRP, the “shrunken log2 fold change” value is -0.497. As for RRIRVRPPRLPRPRPRPEFRPRP, the “shrunken log2 fold change” value stood at 0.463. With RRIRARPPRLPRPRPRPIWKPRP, the “shrunken log2 fold change” value was -0.0642. The same measure for RRIRWRPPRLPRPRPRPGPLPRP: 0.0252; for RRIRVRPPRLPRPRPRPKCSPRP: -0.065; for RRIRDRPPRLPRPRPRPFLAPRP: 0.341.

On to RRIRCRPPRLPRPRPRPEDFPRP, for which the “shrunken log2 fold change” value is -0.198. Turning to RRIRDRPPRLPRPRPRPADTPRP, the “shrunken log2 fold change” value was -0.379. To RRIRTRPPRLPRPRPRPWLSPRP belongs -0.272. The same measure for RRIRKRPPRLPRPRPRPYGSPRP: -0.224; for RRIRLRPPRLPRPRPRPSSSPRP: 0.172. In the case of RRIRRRPPRLPRPRPRPSMCPRP, the “shrunken log2 fold change” value turned out to be 0.008. The same measure for RRIRQRPPRLPRPRPRPYLMPRP: -1.39; for RRIRYRPPRLPRPRPRPFIWPRP: -0.2; for RRIRQRPPRLPRPRPRPTNLPRP: -0.0248.

On to RRIRQRPPRLPRPRPRPTMYPRP, for which the “shrunken log2 fold change” value is -0.352.

Take RRIRKRPPRLPRPRPRPQFFPRP: the “shrunken log2 fold change” value was -0.493. To RRIRNRPPRLPRPRPRPKEVPRP belongs 0.0999. To RRIRYRPPRLPRPRPRPLSKPRP belongs -1.03. The same measure for RRIRERPPRLPRPRPRPHAFPRP: -0.0188.

Turning to RRIRARPPRLPRPRPRPYAFPRP, the “shrunken log2 fold change” value was -0.125. The same measure for RRIRSRPPRLPRPRPRPYWNPRP: 0.503; for RRIRVRPPRLPRPRPRPQVDPRP: 0.00887; for RRIRARPPRLPRPRPRPWMSPRP: 0.0814. On to RRIRSRPPRLPRPRPRPYGPPRP, for which the “shrunken log2 fold change” value was -0.401. For the sequence RRIRHRPPRLPRPRPRPQYFPRP, the “shrunken log2 fold change” value is -0.439.

Regarding RRIRERPPRLPRPRPRPKGLPRP, the “shrunken log2 fold change” value came to 0.0211. The same measure for RRIRIRPPRLPRPRPRPSFYPRP: -0.776; for RRIRARPPRLPRPRPRPCEEPRP: 0.622.

Take RRIRTRPPRLPRPRPRPSRWPRP: the “shrunken log2 fold change” value was determined as 0.0135.

In the case of RRIRMRPPRLPRPRPRPESAPRP, the “shrunken log2 fold change” value was determined as 2.73. To RRIRDRPPRLPRPRPRPINLPRP belongs -0.129.

In the case of RRIRWRPPRLPRPRPRPTSYPRP, the “shrunken log2 fold change” value is -0.103. To RRIRSRPPRLPRPRPRPKMYPRP belongs -0.0737; to RRIRIRPPRLPRPRPRPMCHPRP, -0.316; to RRIRGRPPRLPRPRPRPKFAPRP, 0.684. The same measure for RRIRMRPPRLPRPRPRPGIHPRP: 0.142. On to RRIRSRPPRLPRPRPRPWKTPRP, for which the “shrunken log2 fold change” value is -0.0527. To RRIRKRPPRLPRPRPRPRRQPRP belongs 0.333; to RRIRERPPRLPRPRPRPYHFPRP, -0.177; to RRIRRRPPRLPRPRPRPVKAPRP, 0.148. For RRIRNRPPRLPRPRPRPSQSPRP, the “shrunken log2 fold change” value is -0.169. To RRIRLRPPRLPRPRPRPCAWPRP belongs -0.005.

Take RRIRARPPRLPRPRPRPDNLPRP: the “shrunken log2 fold change” value was -0.0846. To RRIRHRPPRLPRPRPRPSHKPRP belongs -0.718; to RRIRKRPPRLPRPRPRPEWDPRP, 0.12; to RRIRARPPRLPRPRPRPTAHPRP, 0.485. As for RRIRVRPPRLPRPRPRPNHRPRP, the “shrunken log2 fold change” value was -0.199.

As for RRIRFRPPRLPRPRPRPVHEPRP, the “shrunken log2 fold change” value was -0.0618. As for RRIRTRPPRLPRPRPRPLQLPRP, the “shrunken log2 fold change” value is -0.167. The same measure for RRIRCRPPRLPRPRPRPTGQPRP: 0.123; for RRIRVRPPRLPRPRPRPRKDPRP: 0.0324; for RRIRYRPPRLPRPRPRPWEAPRP: -0.271. Regarding RRIRMRPPRLPRPRPRPGTQPRP, the “shrunken log2 fold change” value worked out at 0.407.

As to RRIRRRPPRLPRPRPRPSHHPRP, the “shrunken log2 fold change” value was -0.173. For RRIRYRPPRLPRPRPRPEMHPRP, the “shrunken log2 fold change” value is 2.42. To RRIRWRPPRLPRPRPRPMCRPRP belongs -0.117; to RRIRERPPRLPRPRPRPVMQPRP, 0.095; to RRIRSRPPRLPRPRPRPPEVPRP, 0.287. The same measure for RRIRSRPPRLPRPRPRPMAYPRP: -0.0939; for RRIRYRPPRLPRPRPRPNFFPRP: -0.074; for RRIRQRPPRLPRPRPRPTATPRP: 0.0728. The same measure for RRIRMRPPRLPRPRPRPWTNPRP: -0.01; for RRIRIRPPRLPRPRPRPNETPRP: -0.0216. As for RRIRQRPPRLPRPRPRPHYDPRP, the “shrunken log2 fold change” value is -0.295. To RRIRIRPPRLPRPRPRPQNMPRP belongs -0.235; to RRIRNRPPRLPRPRPRPDQAPRP, -0.01. The same measure for RRIRWRPPRLPRPRPRPVHHPRP: -0.0507; for RRIRSRPPRLPRPRPRPPNSPRP: -0.251; for RRIRDRPPRLPRPRPRPYIQPRP: -0.161. The same measure for RRIRIRPPRLPRPRPRPSGCPRP: -0.137.

Take RRIRGRPPRLPRPRPRPKVYPRP: the “shrunken log2 fold change” value is -0.0773. To RRIRPRPPRLPRPRPRPVQCPRP belongs -0.0846; to RRIRQRPPRLPRPRPRPIWIPRP, -0.206; to RRIRWRPPRLPRPRPRPICWPRP, 0.646. The same measure for RRIRMRPPRLPRPRPRPHIPPRP: -0.289; for RRIRSRPPRLPRPRPRPHSIPRP: -0.248; for RRIRTRPPRLPRPRPRPSTFPRP: -0.49.

Turning to RRIRPRPPRLPRPRPRPASNPRP, the “shrunken log2 fold change” value was -0.231. The same measure for RRIRSRPPRLPRPRPRPLMTPRP: 0.653; for RRIRSRPPRLPRPRPRPACNPRP: -0.285; for RRIRGRPPRLPRPRPRPWDMPRP: -0.08. To RRIRYRPPRLPRPRPRPPKHPRP belongs -0.165; to RRIRTRPPRLPRPRPRPAVFPRP, 0.271; to RRIRDRPPRLPRPRPRPFEEPRP, 0.0467. Consider RRIRNRPPRLPRPRPRPKKCPRP, for which the “shrunken log2 fold change” value was -0.209. The same measure for RRIRKRPPRLPRPRPRPEKDPRP: 0.518; for RRIRYRPPRLPRPRPRPNECPRP: 0.0256. To RRIRWRPPRLPRPRPRPCDGPRP belongs 0.0333; to RRIRRRPPRLPRPRPRPHSIPRP, 0.052; to RRIRARPPRLPRPRPRPWATPRP, 0.494. To RRIRVRPPRLPRPRPRPATHPRP belongs -0.0884.

Consider RRIRDRPPRLPRPRPRPPRVPRP, for which the “shrunken log2 fold change” value was found to be 0.727.

Take RRIRWRPPRLPRPRPRPLDQPRP: the “shrunken log2 fold change” value was -0.0549.

For the sequence RRIRARPPRLPRPRPRPVLWPRP, the “shrunken log2 fold change” value was 2.26. As to RRIRGRPPRLPRPRPRPHFRPRP, the “shrunken log2 fold change” value came to 0.199. To RRIRFRPPRLPRPRPRPESMPRP belongs -0.188. To RRIRWRPPRLPRPRPRPFLHPRP belongs -0.772; to RRIRMRPPRLPRPRPRPHCPPRP, -0.506; to RRIRWRPPRLPRPRPRPQACPRP, 0.145. For RRIRQRPPRLPRPRPRPKMWPRP, the “shrunken log2 fold change” value came out at 1. To RRIRQRPPRLPRPRPRPNINPRP belongs -0.633. Turning to RRIRKRPPRLPRPRPRPIAVPRP, the “shrunken log2 fold change” value amounted to 0.131. With RRIRVRPPRLPRPRPRPGAIPRP, the “shrunken log2 fold change” value is 0.0707. Take RRIRIRPPRLPRPRPRPPKYPRP: the “shrunken log2 fold change” value was -0.886. To RRIRIRPPRLPRPRPRPHGMPRP belongs 0.0429. RRIRRRPPRLPRPRPRPNMPPRP: the “shrunken log2 fold change” value was -0.342. The same measure for RRIRTRPPRLPRPRPRPCDNPRP: -0.267; for RRIRSRPPRLPRPRPRPCREPRP: 0.157. The same measure for RRIRWRPPRLPRPRPRPGQCPRP: 0.00553; for RRIRSRPPRLPRPRPRPWHLPRP: -0.273. To RRIRYRPPRLPRPRPRPNARPRP belongs -0.0675; to RRIRLRPPRLPRPRPRPNVNPRP, -0.28; to RRIRPRPPRLPRPRPRPMDAPRP, -0.128. As for RRIRRRPPRLPRPRPRPEMKPRP, the “shrunken log2 fold change” value amounted to 0.215.

In the case of RRIRTRPPRLPRPRPRPNRKPRP, the “shrunken log2 fold change” value was -0.104. To RRIRERPPRLPRPRPRPAMIPRP belongs -0.0554; to RRIRMRPPRLPRPRPRPQHIPRP, -0.103. As for RRIRMRPPRLPRPRPRPTVIPRP, the “shrunken log2 fold change” value was -0.271.
